Test [1] has as its target T1, human glycophorin A on human red blood cells (human, UniProt P02724 20-150).
T1 construct: whole, on cells; also called human GPA; huGPA
T1 sequence (looked up): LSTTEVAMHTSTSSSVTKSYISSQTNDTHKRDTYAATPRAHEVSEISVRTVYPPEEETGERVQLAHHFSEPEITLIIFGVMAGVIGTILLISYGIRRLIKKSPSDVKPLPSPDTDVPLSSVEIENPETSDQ
The experiment in a line: partition to human RBC, vWF deficient plasma, 15 min.

Test [2] concerns the target T2, glycophorin A peptide GP5 (human, biotin at the N-terminus).
T2 construct: Residues 42 to 61 of the human glycophorin A extracellular domain
T2 peptide: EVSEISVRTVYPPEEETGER
Kind of test: Octet, GP5 peptide on the probe, fusion protein in solution, 1:1 fit. (In general: BLI is a label-free optical method that tracks binding on a fibre tip over time.)

The target of test [3] is T1, human glycophorin A on human red blood …. The experiment in a line: partition to human RBC, vWF deficient plasma, 60 min.
The target is the same in test [4]. The experiment in a line: partition to human RBC, vWF deficient plasma, 5 min.
Test [5] has the same target. The experiment in a line: partition to human RBC, vWF deficient plasma, 1 min.
Test [6] shares this target. The experiment in a line: partition to human RBC, vWF deficient plasma, 120 min.
Test [7] shares this target. The experiment in a line: partition to human RBC, vWF deficient plasma, 30 min.
In test [8] the target is T3, Cynomolgus monkey glycophorin A on Cynomolgus monkey red blood cells (Cynomolgus monkey).
T3 construct: whole, on cells; also called Cyno GPA; Cyno RBC
Kind of test: partition to Cyno RBC, human HemA plasma, 120 min.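 Further: FVIII fusion spiked at 1 IU/mL into RBC suspension at whole-blood density.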

One may read the Kd as the equilibrium constant for the complex coming apart. As usually defined, the koff is the rate constant with which the complex falls apart. In general, kon refers to the second-order rate constant of association.

B1: TPP-9423 FVIII-scFv fusion protein (other)
chain: DIQLTQSPSFLSASVGDRVTITCRASSSVRYIYWFQQKPGKAPKLLIYATSFRQSGVPSRFSGSGSGTEYTLTISSLQPEDFATYYCHQRNSFPYTFGQGTKLEIKGGGGSGGGGSGGGGSGGGGSEVQLVQSGAEVKKPGASVKVSCKASGYTFTTYAIHWVRQAPGQGLEWMGYINPSSGYTRYNPKFKGRVTMTRDKSTSTAYMELRSLRSDDTAVYYCWTGTRDYWGQGTTVTVSSGGGSGGGGSGLVPRGSGGGSGGGGSGATRRYYLGAVELSWDYMQSDLGELPVDARFPPRVPKSFPFNTSVVYKKTLFVEFTDHLFNIAKPRPPWMGLLGPTIQAEVYDTVVITLKNMASHPVSLHAVGVSYWKASEGAEYDDQTSQREKEDDKVFPGGSHTYVWQVLKENGPMASDPLCLTYSYLSHVDLVKDLNSGLIGALLVCREGSLAKEKTQTLHKFILLFAVFDEGKSWHSETKNSLMQDRDAASARAWPKMHTVNGYVNRSLPGLIGCHRKSVYWHVIGMGTTPEVHSIFLEGHTFLVRNHRQASLEISPITFLTAQTLLMDLGQFLLFCHISSHQHDGMEAYVKVDSCPEEPQLRMKNNEEAEDYDDDLTDSEMDVVRFDDDNSPSFIQIRSVAKKHPKTWVHYIAAEEEDWDYAPLVLAPDDRSYKSQYLNNGPQRIGRKYKKVRFMAYTDETFKTREAIQHESGILGPLLYGEVGDTLLIIFKNQASRPYNIYPHGITDVRPLYSRRLPKGVKHLKDFPILPGEIFKYKWTVTVEDGPTKSDPRCLTRYYSSFVNMERDLASGLIGPLLICYKESVDQRGNQIMSDKRNVILFSVFDENRSWYLTENIQRFLPNPAGVQLEDPEFQASNIMHSINGYVFDSLQLSVCLHEVAYWYILSIGAQTDFLSVFFSGYTFKHKMVYEDTLTLFPFSGETVFMSMENPGLWILGCHNSDFRNRGMTALLKVSSCDKNTGDYYEDSYEDISAYLLSKNNAIEPRSFSQNDENQSPRSFQKKTRHYFIAAVERLWDYGMSSSPHVLRNRAQSGSVPQFKKVVFQEFTDGSFTQPLYRGELNEHLGLLGPYIRAEVEDNIMVTFRNQASRPYSFYSSLISYEEDQRQGAEPRKNFVKPNETKTYFWKVQHHMAPTKDEFDCKAWAYFSDVDLEKDVHSGLIGPLLVCHTNTLNPAHGRQVTVQEFALFFTIFDETKSWYFTENMERNCRAPCNIQMEDPTFKENYRFHAINGYIMDTLPGLVMAQDQRIRWYLLSMGSNENIHSIHFSGHVFTVRKKEEYKMALYNLYPGVFETVEMLPSKAGIWRVECLIGEHLHAGMSTLFLVYSNKCQTPLGMASGHIRDFQITASGQYGQWAPKLARLHYSGSINAWSTKEPFSWIKVDLLAPMIIHGIKTQGARQKFSSLYISQFIIMYSLDGKKWQTYRGNSTGTLMVFFGNVDSSGIKHNIFNPPIIARYIRLHPTHYSIRSTLRMELMGCDLNSCSMPLGMESKAISDAQITASSYKTNMFATWSPSKARLHLQGRSNAWRPQVNNPKEWLQVDFQKTMKVTGVTTQGVKSLLTSMYVKEFLISSSQDGHQWTLFFQNGKVKVFQGNQDSFTPVVNSLDPPLLTRYLRIHPQSWVHQIALRMEVLGCEAQDLY
notes: also called 9423 (F2196K)
Take B1: the “percentage bound to human RBC” value in test [1] was found to be 89.9%; in test [3], 80.3%; in test [4] it was 87.4%; in test [5], 44.1%; in test [6], 92.3%; in test [7] it was 91.2%. In addition, the Kd in test [2] amounted to 1.27 nM. This molecule displayed a koff in test [2] of 0.00066 s⁻¹. The molecule also displayed a kon in test [2] of 520000 M⁻¹ s⁻¹. Moreover, the “% bound to Cyno RBC” value in test [8] turned out to be 62.8%.

B2: TPP-9161 FVIII-scFv fusion protein (other)
chain: ATRRYYLGAVELSWDYMQSDLGELPVDARFPPRVPKSFPFNTSVVYKKTLFVEFTDHLFNIAKPRPPWMGLLGPTIQAEVYDTVVITLKNMASHPVSLHAVGVSYWKASEGAEYDDQTSQREKEDDKVFPGGSHTYVWQVLKENGPMASDPLCLTYSYLSHVDLVKDLNSGLIGALLVCREGSLAKEKTQTLHKFILLFAVFDEGKSWHSETKNSLMQDRDAASARAWPKMHTVNGYVNRSLPGLIGCHRKSVYWHVIGMGTTPEVHSIFLEGHTFLVRNHRQASLEISPITFLTAQTLLMDLGQFLLFCHISSHQHDGMEAYVKVDSCPEEPQLRMKNNEEAEDYDDDLTDSEMDVVRFDDDNSPSFIQIRSVAKKHPKTWVHYIAAEEEDWDYAPLVLAPDDRSYKSQYLNNGPQRIGRKYKKVRFMAYTDETFKTREAIQHESGILGPLLYGEVGDTLLIIFKNQASRPYNIYPHGITDVRPLYSRRLPKGVKHLKDFPILPGEIFKYKWTVTVEDGPTKSDPRCLTRYYSSFVNMERDLASGLIGPLLICYKESVDQRGNQIMSDKRNVILFSVFDENRSWYLTENIQRFLPNPAGVQLEDPEFQASNIMHSINGYVFDSLQLSVCLHEVAYWYILSIGAQTDFLSVFFSGYTFKHKMVYEDTLTLFPFSGETVFMSMENPGLWILGCHNSDFRNRGMTALLKVSSCDKNTGDYYEDSYEDISAYLLSKNNAIEPRSFSQNGGGGSTGGTGGSSGGGTGSGGGGTGGSGGTDIQLTQSPSFLSASVGDRVTITCRASSSVRYIYWFQQKPGKAPKLLIYATSFRQSGVPSRFSGSGSGTEYTLTISSLQPEDFATYYCHQRNSFPYTFGQGTKLEIKGGGGSGGGGSGGGGSGGGGSEVQLVQSGAEVKKPGASVKVSCKASGYTFTTYAIHWVRQAPGQGLEWMGYINPSSGYTRYNPKFKGRVTMTRDKSTSTAYMELRSLRSDDTAVYYCWTGTRDYWGQGTTVTVSSGGGGSQNPPVLKRHQREITDENQSPRSFQKKTRHYFIAAVERLWDYGMSSSPHVLRNRAQSGSVPQFKKVVFQEFTDGSFTQPLYRGELNEHLGLLGPYIRAEVEDNIMVTFRNQASRPYSFYSSLISYEEDQRQGAEPRKNFVKPNETKTYFWKVQHHMAPTKDEFDCKAWAYFSDVDLEKDVHSGLIGPLLVCHTNTLNPAHGRQVTVQEFALFFTIFDETKSWYFTENMERNCRAPCNIQMEDPTFKENYRFHAINGYIMDTLPGLVMAQDQRIRWYLLSMGSNENIHSIHFSGHVFTVRKKEEYKMALYNLYPGVFETVEMLPSKAGIWRVECLIGEHLHAGMSTLFLVYSNKCQTPLGMASGHIRDFQITASGQYGQWAPKLARLHYSGSINAWSTKEPFSWIKVDLLAPMIIHGIKTQGARQKFSSLYISQFIIMYSLDGKKWQTYRGNSTGTLMVFFGNVDSSGIKHNIFNPPIIARYIRLHPTHYSIRSTLRMELMGCDLNSCSMPLGMESKAISDAQITASSYKTNMFATWSPSKARLHLQGRSNAWRPQVNNPKEWLQVDFQKTMKVTGVTTQGVKSLLTSMYVKEFLISSSQDGHQWTLFFQNGKVKVFQGNQDSFTPVVNSLDPPLLTRYLRIHPQSWVHQIALRMEVLGCEAQDLY
notes: also called PPB 7644
Regarding B2, the “percentage bound to human RBC” value in test [1] was found to be 82.9%; in test [3], 86.2%; in test [4], 78.4%; in test [5], 51.4%; in test [6] it was 84.2%; in test [7], 85.9%.

These data come from patent publication US20190359687A1 (Bayer, published 2019).
